The target in assay [1] is γB2ΔICD-EC5-VenusΔN3C9-P3 (mouse) (UniProt Q91XX7). Nature of the assay: FRET or BRET; acceptor photobleaching at cell adhesion sites of co-cultured HEK293T cells individually expressing donor (mTQ2) and acceptor (Venus) constructs; trans interaction across cells. Background: BRET reads energy transfer from a luciferase to a nearby fluorophore.
The target in assay [2] is γB2ΔICD-EC5-Venus (mouse) (UniProt Q91XX7). Described as above.

Substance “γB2ΔICD-EC1-G4S-mTQ2ΔC6 (from UniProt Q91XX7 1-738) (receptor)” came in with an FRET efficiency in assay [1] of 27.4%. In the case of “γB2ΔICD-EC1-mTQ2 (from UniProt Q91XX7 1-738) (receptor)”, in assay [2], the FRET efficiency came out at 14.1%.

Values taken from article PMC8593154.
